# From the supplement of paper PMC9170038
# System: MS2 coat protein
# Experiment: apparent KD of MS2 coat protein; higher = weaker reporter binding
# Conditions: Eterna round: R107
# Summary of the method: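 Titration buffer: 100 mM Tris-HCl pH 7.5, 80 mM KCl, 4 mM MgCl2, without or with constant ligand. Designed RNA switches transcribed on-chip from Illumina sequencing clusters received SNAP-549-labelled MS2 coat protein in twofold steps from 0.7 or 1.5 nM to 3 µM. Apparent KD is the median per design of fits to normalised cluster binding curves.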
# [1] = input ligand: theophylline 20 uM
# [2] = input ligand: theophylline 2 mM
# [3] = input ligand: tryptophan 2.4 mM
Sequence,apparent KD of MS2 coat protein (input ligand: arginine 13.2 mM),apparent KD of MS2 coat protein [1],apparent KD of MS2 coat protein [2],apparent KD of MS2 coat protein (input ligand: none),apparent KD of MS2 coat protein [3]
AUUACAUGAGCAUCAGCACAUGAGGAUCACCGAGGACCGGUACGGCCGCCACUCGACACAUGAGGAUCACCCAUGUGUUGUUGUU [Exclusion Tryptophan A 3],24.6 nM,345 nM,281 nM,–,–
AUUACAUGGAUUACAACUAAAUCAACUGAAGGAGCGUGAAGGAUCACAGGUAGGUCGCAGUACAUGAGGAUCACCCAUGUUAUAA [JR_Nu_SSArginiA_Sub021],34.4 nM,48.5 nM,45.9 nM,34 nM,39.6 nM
AUUAUCGUAGGUUAAAGUUUAGAAACUGAAGGAGCGUGGUAUUACACAGGUAGGUCGCAGAUUUUACAUGAGGAUCACCCAUGUU [JR_ExcArginiA_Sub010],21.3 nM,26.3 nM,25.1 nM,22.4 nM,21.5 nM
AUUGUCAAGUCGGCCGCCACUUCUGCCAUGGCCACCAGUCGACAUGAGGAUCACCCAUGUCUCUUAAGGACCGGGACUUUCAAUU [theeternabot_sameState_MS2_Trp_B_6],13.1 nM,16 nM,13.9 nM,–,–
AUUUUCAUGGUCAUAUAUAUAUCUUCAGAUACCAGACUAUAUUAAGUCCCUUGGCAGCUGUUACAUGAGGAUCACCCAUGUUAUA [JR_ExcTheophyA_Sub013],40.1 nM,65.3 nM,–,–,78 nM
CAAGCACCAACCGAUACCAGCUUAGUAGUAUGCUCAUUAAACAUGAGGAUCACCCAUGUGAGCCCUUGGCAGCGGAUUUCCCUGC [theeternabot_exclusion_MS2_Theo_B_12],14.5 nM,18.3 nM,–,–,13.5 nM
CACUACAUGAGGAUCACCCAUGUCUUCCGACGAGGACCGGUACGGCCGCCACUCGAACCUCCAACUAAUACCUCAACCGUCUGAU [theeternabot_sameState_MS2_Trp_A_25],36.5 nM,110 nM,101 nM,–,–
CAGAGACAUGAGGAUCACCCAUGUUGAGAUACCAGCUUGGUAUCGAGCCCUUGGCAGCUCGCCCAUCGUCUAUAUCAGCCUGAGC [theeternabot_sameState_MS2_Theo_A_40],17 nM,18.9 nM,–,–,16.8 nM
CAGGUGGACUGAAGGAGCGAGUCAGGGACUUACAUGAGGAUCACCCAUGUCACGGUCGUCACUCAGGUAGGUCGCAGUUCGCCUC [Diinan],113 nM,279 nM,628 nM,188 nM,231 nM
CAGUCAGUCAGUCAAUGAGUGAGGCAUGAAGGAGCGUGGGAAACCACAGGUAGGUCGCAUGCGGAACAUGAGGAUCACCCAUGUU [SSArg A #4],31.9 nM,26.2 nM,26.8 nM,27.2 nM,27.7 nM
CAGUCUCUAGCGGCCGCCACUGUUCUGCUGGUGCUGCUGAACGAACAUGAGGAUCACCCAUGUCUCAGGACCGGGCUUCAGACUC [theeternabot_sameState_MS2_Trp_B_44],22.4 nM,30.4 nM,33.3 nM,–,–
CAUACUUUAGUAUGUUAUGUGGACAGUGAUACCAGAUACGAAAGUAUCCCUUGGCAGCACAACAUGAGGAUCACCCAUGUAUUUU [Theophylline A 4],25.8 nM,22.2 nM,–,–,21.5 nM
CAUGAAGUAACUGAUACCAGUGUACACAUGAGGAUCACCCAUGUGUUGGGUUUUGUUGUACACCCUUGGCAGCAGAAUCUUUAUG [AstrosExyTheB#8],42.4 nM,84.3 nM,–,–,51.2 nM
CAUGAUAAGUUGGAUACCAGCAUAUGGAACAACAUGAGGAUCACCCAUGUCAAAUGACAUUGCCCUUGGCAGCCACCUACUGUCA [theeternabot_sameState_MS2_Theo_B_5],21.2 nM,19.1 nM,–,–,17.9 nM
CCGCACAUGAGGAUCACCCAUGUCCGGGUUCGAGGACCGGUACGGCCGCCACUCGGACAUGUGCGCCCUUCAUGCACUGUAUAAA [Macetius],38.9 nM,158 nM,239 nM,–,–
